Measurements taken from US7018627 (ICOS, dated 2006).
Where a chain is given by its changes, count along the chain named.

B1: TARC (Thymus and Activation-Regulated Chemokine) (ligand)
chain: ARGTNVGRECCLEYFKGAIPLRKLKTWYQTSEDCSRDAIVFVTVQGRAICSDPNNKRVKNAVKYLQSLERS
notes: The whole entry is named here
B2: human C-C chemokine receptor 4 (CCR4) (receptor)
chain: MNPTDIADTTLDESIYSNYYLYESIPKPCTKEGIKAFGELFLPPLYSLVFVFGLLGNSVVVLVLFKYKRLRSMTDVYLLNLAISDLLFVFSLPFWGYYAADQWVFGLGLCKMISWMYLVGFYSGIFFVMLMSIDRYLAIVHAVFSLRARTLTYGVITSLATWSVAVFASLPGFLFSTCYTERNHTYCKTKYSLNSTTWKVLSSLEINILGLVIPLGIMLFCYSMIIRTLQHCKNEKKNKAVKMIFAVVVLFLGFWTPYNIVLFLETLVELEVLQDCTFERYLDYAIQATETLAFVHCCLNPIIYFFLGEKFRKYILQLFKTCRGLFVLCQYCGLLQIYSADTPSSSYTQSTMDHDLHDAL
notes: Expressed on stably transfected murine pre-B L1.2 cells (L1.2/CCR4, L1.2/huCCR4); also called huCCR4; MDC receptor CCR4
B3: human mature Macrophage Derived Chemokine, MDC(1-69) (ligand)
chain: GPYGANMEDSVCCRDYVRYRLPLRVVKHFYWTSDSCPRPGVVLLTFRDKEICADPRVPWVKMILNKLSQ
notes: also called mature MDC; human mature MDC
B4: MDC-eyfy (ligand)
chain: B3 chain with H28E, F29Y, Y30F, W31Y
B5: MDC-wvas (ligand)
chain: B3 chain with W59A, V60S
notes: Chemically synthesized analog
B6: MDC (9-69) (ligand)
chain: DSVCCRDYVRYRLPLRVVKHFYWTSDSCPRPGVVLLTFRDKEICADPRVPWVKMILNKLSQ
notes: Chemically synthesized N-terminal deletion analog
B7: murine Leu-MDC (ligand)
chain: LGPYGANVEDSICCQDYIRHPLPSRLVKEFFWTSKSCRKPGVVLITVKNRDICADPRQVWVKKLLHKLS

Columns and labels:
[1] = target: B2; experiment: competition with 0.1 nM 125I-labeled human MDC on L1.2/huCCR4 cells; LARC at 100 nM
[2] = target: B2; experiment: displacement of 0.5 nM MDC-SEAP from CCR4-transfected L1.2 cells by unlabeled chemokine
Protocol: (§1) The MDC-SEAP was used as a probe to examine MDC binding to CCR4-transfected L1.2 cells. For displacement and saturation experiments, transfected L1.2 cells (approx. 3×10^5) were incubated for one hour at 16° C. in the presence of 0.5 nM MDC-SEAP in the presence or absence of various concentrations of unlabeled chemokines in 200 μl binding buffer (RPMI 1640 media containing 25 mM HEPES, pH 7.4, 1% BSA, and 0.02% sodium azide). Following incubation, the cells were washed four times in binding buffer and lysed in 50 μl of 10 mM Tris-HCl, pH 8.0, and 1% Triton X-100. Samples were heated at 65° C. for 15 minutes to inactivate cellular phosphatases, centrifuged, and stored at −20° C. until assayed.
(§2) Alkaline phosphatase activity in 10 μl of sample was determined by a chemiluminescence assay using the Great Escape Detection kit (Clontech, Palo Alto, Calif.) according to the manufacturer's instructions. […] Binding competition curves were fitted (TableCurve™) using a three-parameter logistic model described by the equation y=a/[1+(x/b)^c], where y is the amount of labelled ligand bound, a is the maximum amount of labelled ligand bound, x is the concentration of the competitive chemokine, b is the IC$50$, and c is a parameter that determines the slope of the curve at the IC$50$.

MDC-SEAP fusion protein = target: T1, MDC-SEAP fusion protein (human, UniProt P05187 23-506); experiment: saturation binding of MDC-SEAP to CCR4-transfected L1.2 cells, Scatchard analysis
T1 construct: mature; Expressed from pcDNA3 in COS cells and used as filtered culture supernatant; also called synthetic MDC-SEAP
Protocol: as §1, §2

[3] = target: B2; experiment: CCR4 binding assay on L1.2/CCR4 cells, essentially as in Example 25
[4] = target: B2; experiment: cell-based or functional assay

Molecule “chemokine LARC (from UniProt P78556 27-96) (ligand)” has a cpm of labeled MDC bound in the presence of the competitor [1] of 3800 cpm.

B1 showed an IC50 [2] of 2.1 nM.

B2 showed a Kd (MDC-SEAP fusion protein) of 0.18 nM.

For B3, the IC50 [2] was 0.65 nM and the “fold higher affinity than TARC” value [2] was > 3 fold.

B4: binds [3].

B5 was tested, and the “fold less affinity than MDC” value [3] was ~500 fold.

B6: binds [3].

In the case of B7, the “chemotaxis of L1.2/huCCR4 cells: response relative to full-length murine MDC” value [4] is reported as ~20 % lower.
